Experiments:
[1] = biological target: SHP2-C SH2; test: SH2 binding enrichment of the phosphorylated peptide, bacterial display (enrichment ratio); higher = better substrate or ligand; peptides without Tyr show the background
[2] = biological target: c-Src SH2; test: as above
[3] = biological target: Grb2 SH2 (UniProt P62993); test: as above
[4] = biological target: FGFR1 (UniProt P11362); test: phosphorylation enrichment, bacterial display (enrichment ratio); higher = better substrate or ligand; peptides without Tyr show the background
FGFR1, sequence (P11362 whole entry, looked up): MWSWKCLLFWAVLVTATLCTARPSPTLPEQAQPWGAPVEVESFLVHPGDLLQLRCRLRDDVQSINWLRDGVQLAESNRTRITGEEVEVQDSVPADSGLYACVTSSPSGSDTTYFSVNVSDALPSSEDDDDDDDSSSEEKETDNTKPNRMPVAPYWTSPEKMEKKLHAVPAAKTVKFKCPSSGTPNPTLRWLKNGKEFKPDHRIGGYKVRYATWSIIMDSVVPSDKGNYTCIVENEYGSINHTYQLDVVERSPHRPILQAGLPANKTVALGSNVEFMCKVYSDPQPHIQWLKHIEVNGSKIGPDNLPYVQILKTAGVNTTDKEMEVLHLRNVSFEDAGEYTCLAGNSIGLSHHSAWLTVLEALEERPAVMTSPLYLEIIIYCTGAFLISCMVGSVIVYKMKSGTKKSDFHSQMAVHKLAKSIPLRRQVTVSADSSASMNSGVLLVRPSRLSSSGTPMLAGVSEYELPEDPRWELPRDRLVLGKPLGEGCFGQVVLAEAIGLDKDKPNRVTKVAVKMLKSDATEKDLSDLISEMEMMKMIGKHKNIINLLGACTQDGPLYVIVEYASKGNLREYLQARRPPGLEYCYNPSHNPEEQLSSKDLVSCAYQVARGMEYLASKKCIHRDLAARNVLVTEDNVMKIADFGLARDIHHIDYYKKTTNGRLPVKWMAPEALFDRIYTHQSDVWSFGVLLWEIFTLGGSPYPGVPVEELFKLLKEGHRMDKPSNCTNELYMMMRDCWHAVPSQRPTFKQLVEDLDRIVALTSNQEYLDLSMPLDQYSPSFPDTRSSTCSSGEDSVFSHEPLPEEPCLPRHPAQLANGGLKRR

[5] = biological target: MERTK (UniProt Q12866); test: as above
[6] = biological target: Fyn (UniProt P06241); test: as above
Fyn, sequence (P06241 whole entry, looked up): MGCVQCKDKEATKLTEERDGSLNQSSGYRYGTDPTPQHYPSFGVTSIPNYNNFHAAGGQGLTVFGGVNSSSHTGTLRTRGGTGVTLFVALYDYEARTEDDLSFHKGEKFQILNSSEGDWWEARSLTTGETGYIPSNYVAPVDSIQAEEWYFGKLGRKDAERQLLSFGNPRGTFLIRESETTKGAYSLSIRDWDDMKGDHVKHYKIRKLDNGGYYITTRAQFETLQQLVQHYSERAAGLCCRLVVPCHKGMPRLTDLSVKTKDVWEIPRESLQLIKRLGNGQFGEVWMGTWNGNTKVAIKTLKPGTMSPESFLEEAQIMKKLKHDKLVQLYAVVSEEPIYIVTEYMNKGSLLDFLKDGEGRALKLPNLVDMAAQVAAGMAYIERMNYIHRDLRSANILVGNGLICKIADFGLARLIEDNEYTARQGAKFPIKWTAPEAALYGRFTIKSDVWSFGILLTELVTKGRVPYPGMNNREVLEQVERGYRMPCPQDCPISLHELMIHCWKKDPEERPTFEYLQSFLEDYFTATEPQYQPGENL

[7] = test system: c-Abl (mouse); test: as above
[8] = biological target: Hck (UniProt P08631); test: as above
Hck, sequence (P08631 whole entry, looked up): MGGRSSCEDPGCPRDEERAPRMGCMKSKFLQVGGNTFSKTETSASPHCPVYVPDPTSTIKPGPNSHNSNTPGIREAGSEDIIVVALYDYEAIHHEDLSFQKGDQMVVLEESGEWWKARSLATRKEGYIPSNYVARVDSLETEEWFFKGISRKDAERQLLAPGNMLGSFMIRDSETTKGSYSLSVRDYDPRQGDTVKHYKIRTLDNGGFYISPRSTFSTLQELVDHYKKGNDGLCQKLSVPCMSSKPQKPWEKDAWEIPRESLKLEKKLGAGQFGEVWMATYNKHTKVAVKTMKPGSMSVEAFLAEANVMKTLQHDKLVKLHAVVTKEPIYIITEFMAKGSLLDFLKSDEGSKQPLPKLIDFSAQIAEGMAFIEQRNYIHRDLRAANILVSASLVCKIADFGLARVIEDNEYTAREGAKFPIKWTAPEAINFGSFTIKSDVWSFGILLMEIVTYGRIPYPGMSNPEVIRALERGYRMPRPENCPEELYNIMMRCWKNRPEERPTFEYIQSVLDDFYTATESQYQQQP

[9] = biological target: FGFR3 (UniProt P22607); test: as above
FGFR3, sequence (P22607 whole entry, looked up): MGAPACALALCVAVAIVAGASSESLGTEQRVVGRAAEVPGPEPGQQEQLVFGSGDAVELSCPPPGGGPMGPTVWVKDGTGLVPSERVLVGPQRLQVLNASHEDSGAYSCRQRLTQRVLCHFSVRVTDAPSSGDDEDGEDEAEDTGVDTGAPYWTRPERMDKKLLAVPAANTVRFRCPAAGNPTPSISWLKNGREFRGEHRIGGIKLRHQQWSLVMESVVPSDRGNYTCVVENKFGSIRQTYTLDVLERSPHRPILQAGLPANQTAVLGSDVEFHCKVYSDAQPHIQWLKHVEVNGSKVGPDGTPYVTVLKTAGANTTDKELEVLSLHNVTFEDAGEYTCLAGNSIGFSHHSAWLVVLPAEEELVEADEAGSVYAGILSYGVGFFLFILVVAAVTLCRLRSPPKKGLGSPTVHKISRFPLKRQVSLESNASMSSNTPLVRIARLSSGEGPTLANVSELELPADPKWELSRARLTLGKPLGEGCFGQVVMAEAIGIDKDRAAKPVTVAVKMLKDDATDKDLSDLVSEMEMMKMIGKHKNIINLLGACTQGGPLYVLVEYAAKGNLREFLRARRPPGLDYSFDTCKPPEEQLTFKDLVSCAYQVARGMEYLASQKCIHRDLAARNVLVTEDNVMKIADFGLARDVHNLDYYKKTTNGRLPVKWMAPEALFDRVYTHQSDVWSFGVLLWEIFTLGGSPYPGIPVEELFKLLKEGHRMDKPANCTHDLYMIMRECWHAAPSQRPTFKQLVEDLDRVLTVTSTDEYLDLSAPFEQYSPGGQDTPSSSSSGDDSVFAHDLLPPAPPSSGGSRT

[10] = biological target: EPHB2 (UniProt P29323); test: as above
[11] = biological target: EPHB1 (UniProt P54762); test: as above
[12] = biological target: Jak2 (UniProt O60674); test: as above
Jak2, sequence (O60674 whole entry, looked up): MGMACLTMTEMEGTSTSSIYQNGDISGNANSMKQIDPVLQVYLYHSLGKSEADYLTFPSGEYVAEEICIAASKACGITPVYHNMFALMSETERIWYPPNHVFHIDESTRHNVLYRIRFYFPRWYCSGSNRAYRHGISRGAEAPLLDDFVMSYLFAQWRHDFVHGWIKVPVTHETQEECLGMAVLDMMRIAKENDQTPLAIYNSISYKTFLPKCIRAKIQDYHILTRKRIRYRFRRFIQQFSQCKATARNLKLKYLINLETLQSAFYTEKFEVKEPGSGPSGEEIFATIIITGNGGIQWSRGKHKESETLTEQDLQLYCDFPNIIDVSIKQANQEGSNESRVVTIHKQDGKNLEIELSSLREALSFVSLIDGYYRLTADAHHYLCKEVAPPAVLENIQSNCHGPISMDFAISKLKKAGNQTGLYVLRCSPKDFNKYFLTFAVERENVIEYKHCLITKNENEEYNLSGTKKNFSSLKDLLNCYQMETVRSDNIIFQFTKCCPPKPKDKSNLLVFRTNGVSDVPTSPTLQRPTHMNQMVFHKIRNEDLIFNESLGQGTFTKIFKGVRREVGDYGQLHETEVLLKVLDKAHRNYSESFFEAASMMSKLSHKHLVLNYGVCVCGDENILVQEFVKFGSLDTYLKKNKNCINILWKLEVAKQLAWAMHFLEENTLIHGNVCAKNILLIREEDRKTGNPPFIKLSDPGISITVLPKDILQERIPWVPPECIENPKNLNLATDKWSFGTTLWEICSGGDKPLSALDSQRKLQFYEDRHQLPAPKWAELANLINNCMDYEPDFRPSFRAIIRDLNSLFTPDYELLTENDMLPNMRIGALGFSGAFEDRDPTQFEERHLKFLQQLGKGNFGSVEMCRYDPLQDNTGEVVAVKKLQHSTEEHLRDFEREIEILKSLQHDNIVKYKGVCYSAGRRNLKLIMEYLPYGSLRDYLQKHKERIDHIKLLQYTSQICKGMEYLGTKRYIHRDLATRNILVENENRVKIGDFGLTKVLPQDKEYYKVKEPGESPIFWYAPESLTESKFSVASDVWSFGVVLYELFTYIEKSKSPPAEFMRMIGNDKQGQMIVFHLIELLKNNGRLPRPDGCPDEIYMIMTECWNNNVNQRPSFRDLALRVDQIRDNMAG

[13] = test system: AncSZ; test: as above
[14] = biological target: Fes (UniProt P07332); test: as above
Fes, sequence (P07332 whole entry, looked up): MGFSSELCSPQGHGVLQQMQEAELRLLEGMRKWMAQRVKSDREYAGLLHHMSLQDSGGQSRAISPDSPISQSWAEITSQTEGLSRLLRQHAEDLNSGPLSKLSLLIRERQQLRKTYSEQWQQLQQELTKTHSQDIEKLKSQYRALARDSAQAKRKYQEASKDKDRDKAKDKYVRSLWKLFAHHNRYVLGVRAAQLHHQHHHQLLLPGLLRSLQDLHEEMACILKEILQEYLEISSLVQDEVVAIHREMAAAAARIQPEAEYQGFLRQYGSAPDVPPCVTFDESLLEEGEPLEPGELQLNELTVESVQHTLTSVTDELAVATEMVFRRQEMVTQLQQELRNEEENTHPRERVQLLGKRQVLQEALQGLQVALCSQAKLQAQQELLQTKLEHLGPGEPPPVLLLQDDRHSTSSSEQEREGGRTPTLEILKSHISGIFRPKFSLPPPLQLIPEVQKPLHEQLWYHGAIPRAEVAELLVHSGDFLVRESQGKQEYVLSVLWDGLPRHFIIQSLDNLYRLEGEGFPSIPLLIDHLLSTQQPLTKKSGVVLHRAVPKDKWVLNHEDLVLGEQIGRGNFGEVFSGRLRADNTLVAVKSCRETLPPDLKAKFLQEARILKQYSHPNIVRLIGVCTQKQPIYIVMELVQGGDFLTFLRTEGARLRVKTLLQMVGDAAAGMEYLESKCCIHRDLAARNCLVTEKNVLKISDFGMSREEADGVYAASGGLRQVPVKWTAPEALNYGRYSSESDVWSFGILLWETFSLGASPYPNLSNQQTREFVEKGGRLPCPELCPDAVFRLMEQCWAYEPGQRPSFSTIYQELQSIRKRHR

[15] = test system: Fer (mouse); test: as above
[16] = test system: c-Src; test: as above
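Wherever SH2 binding enrichment of the phosphorylated peptide, bacterial display is given: peptide library displayed on the E. coli surface as eCPX fusions, selected cells deep-sequenced, score is each peptide's frequency after selection divided by its frequency in the input.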
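Wherever phosphorylation enrichment, bacterial display is given: 11-residue human phosphosite peptides and single-mutation variants displayed on the E. coli surface, counted by deep sequencing, each peptide's frequency after selection divided by its frequency in the unselected input library; frequency after pTyr selection over input frequency; kinase dosed for 20-30% of maximal phosphorylation in three min.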

Grb2 SH2, sequence (P62993 whole entry, looked up): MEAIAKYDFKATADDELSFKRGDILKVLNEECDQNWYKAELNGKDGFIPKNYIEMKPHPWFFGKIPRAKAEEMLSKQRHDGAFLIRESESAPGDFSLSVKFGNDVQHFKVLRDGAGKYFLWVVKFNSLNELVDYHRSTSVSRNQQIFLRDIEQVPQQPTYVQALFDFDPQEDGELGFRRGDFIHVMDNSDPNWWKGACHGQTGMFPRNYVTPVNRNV

Row | Sequence | SH2 binding enrichment [1] | SH2 binding enrichment [2] | SH2 binding enrichment [3] | phosphorylation enrichment [4] | phosphorylation enrichment [5] | phosphorylation enrichment [6] | phosphorylation enrichment [7] | phosphorylation enrichment [8] | phosphorylation enrichment [9] | phosphorylation enrichment [10] | phosphorylation enrichment [11] | phosphorylation enrichment [12] | phosphorylation enrichment [13] | phosphorylation enrichment [14] | phosphorylation enrichment [15] | phosphorylation enrichment [16]
1 | LAARFYNWVSF [FLT4_Y1231_YF] | 1.61 | 1.25 | 1.26 | 1.27 | 1.02 | 0.51 | 0.988 | 0.476 | 1.56 | 0.605 | 0.69 | 1.1 | 1.44 | 1.55 | 2.55 | 0.82
2 | NEKNIYRVPLM [BMPR2_Y247] | 0.755 | 0.508 | 0.864 | 0.446 | 0.609 | 1.96 | 31.2 | 1.16 | 0.501 | 0.357 | 0.377 | 0.671 | 0.622 | 0.708 | 0.439 | 0.877
3 | CDKEYYSVHNK [MET_Y1235_Y1230C] | 0.553 | 0.51 | 0.655 | 2.49 | 0.573 | 0.608 | 0.949 | 0.788 | 2.09 | 0.69 | 0.734 | 1.32 | 2.06 | 1.2 | 0.601 | 0.761
4 | SLLPDYEDEEE [ZNF830_Y159] | 0.776 | 0.601 | 0.942 | 0.583 | 0.631 | 0.646 | 0.647 | 0.673 | 0.782 | 0.829 | 0.744 | 1.01 | 1.47 | 1.28 | 0.64 | 0.556
5 | CPFNLYAEQLS [HGD_Y40_YF] | 0.708 | 0.645 | 0.892 | 0.577 | 0.769 | 0.642 | 0.77 | 0.772 | 0.698 | 0.816 | 1.16 | 0.935 | 1.15 | 1.37 | 0.636 | 0.696
6 | KMMGRYEMFAR [UPB1_Y362_T359M_YF] | 0.973 | 1.65 | 1.12 | 0.363 | 0.393 | 0.368 | 0.464 | 0.402 | 0.445 | 0.393 | 0.327 | 0.453 | 0.538 | 0.599 | 0.298 | 0.34
7 | LSQAKYQIRFR [CRLF1_Y272_F268S_YF] | 0.78 | 0.645 | 1.12 | 0.558 | 0.499 | 0.621 | 0.597 | 0.431 | 0.596 | 0.286 | 0.682 | 0.63 | 0.933 | 0.672 | 0.499 | 0.421
8 | SWSTSYSGYRY [NKAPL_Y91] | 1.88 | 1.03 | 1.17 | 0.707 | 0.461 | 0.706 | 0.652 | 0.701 | 0.656 | 0.619 | 0.596 | 0.741 | 0.825 | 0.925 | 0.591 | 1.7
9 | KEAQVYQAFKL [SUCLG2_Y343] | 0.616 | 0.408 | 0.858 | 0.516 | 2.84 | 11.3 | 15.3 | 9.46 | 0.603 | 0.566 | 1.07 | 0.801 | 1.1 | 1.05 | 9.27 | 7.32
10 | ECKLFYSRKEG [PTPN11_Y263_L262F] | 0.623 | 0.436 | 0.746 | 0.457 | 0.515 | 0.401 | 0.768 | 0.626 | 0.602 | 0.451 | 0.502 | 0.685 | 1.08 | 1 | 0.445 | 0.465
11 | ARVANYQRDGP [CAT_Y386] | 0.342 | 0.32 | 0.606 | 0.524 | 0.574 | 0.436 | 0.496 | 0.386 | 0.526 | 0.406 | 0.564 | 0.486 | 0.785 | 0.607 | 0.394 | 0.545
12 | PTQLPYDHKWE [KIT_Y578] | 0.575 | 0.524 | 0.923 | 0.581 | 0.449 | 0.491 | 0.655 | 0.87 | 0.696 | 0.631 | 0.716 | 0.68 | 0.859 | 1.33 | 0.601 | 0.618
13 | CNPRRYPVLMS [OR2T1_Y182_L180R] | 0.954 | 1.18 | 1.1 | 0.384 | 0.411 | 0.501 | 0.59 | 0.373 | 0.485 | 0.496 | 0.49 | 0.822 | 0.625 | 0.833 | 0.358 | 0.494
14 | TRSYKYLLLSM [NF1_Y491] | 2.46 | 1.15 | 1.64 | 0.433 | 0.485 | 0.477 | 0.852 | 0.422 | 0.624 | 0.69 | 0.754 | 0.887 | 0.833 | 0.832 | 0.434 | 0.494
15 | EFRFIYMAVQH [PTPN11_Y515_Q510E_YF] | 0.86 | 0.596 | 0.912 | 0.555 | 0.519 | 1.42 | 1.16 | 1.63 | 0.864 | 0.737 | 0.881 | 1.18 | 1.31 | 1.35 | 1.01 | 2.05
16 | QERPEYWDQET [HLA-A_Y83_G80R] | 0.827 | 0.626 | 0.985 | 0.727 | 0.566 | 0.646 | 1.14 | 0.696 | 0.915 | 0.702 | 0.693 | 1.56 | 1.81 | 1.58 | 1.14 | 0.554
17 | DRLASYRDKVR [KRT12_Y139_L140R] | 0.947 | 1.09 | 0.878 | 0.27 | 0.332 | 0.372 | 0.442 | 0.327 | 0.425 | 0.338 | 0.294 | 0.587 | 0.466 | 0.447 | 0.366 | 0.347
